# Test results from patent publication US9107936B2, “Antagonists of GRASP55 for use as a medicament” (Institut National de la Sante et de la Recherche Medicale …, priority 2012, dated 2015).
# Where no end group is shown, it is not given here.
# How the values were obtained:
# [1] = target: T1, GST-PDZI′ (Grasp55 residues 1 to 107) (Mus musculus, UniProt Q99JX3); assay: HTRF measurement of interaction of biotinylated C-terminal peptides with GST-PDZI′; format: binding, murine; settings: for interaction of biotinylated peptide with PDZI′ GST construct: peptide 1.9*10^−7M; for which Grasp55 construct's interaction with JAM-C is inhibited: NINDS library screening, PDZI′ and PDZI′+II′ recombinant GST proteins
# T1 construct: GST fusion proteins encompassing residues 1 to 107; made in house; host or cells: bacteria Rosetta
# Description: (§1) To refine and extend the results obtained by yeast two hybrid, an Homogenous Time Resolved Fluorescence (HTRF) assay have been set-up to measure interactions of various peptides with recombinant GST proteins corresponding to different regions of Grasp55.
# (§2) Briefly, the technique consisted in incubating 18 h at 4° C. the biotinylated-Cterminal peptides (SEQ ID NO: 26 to 34) at the concentration of 1.9*10^−7M with the GST-fusion protein, the terbium-coupled anti-GST antibody (8*10^−10M each) and the d2-coupled streptavidin (4*10^−8M) (both from Cisbio), in 0.1 mL of Hepes 0.05M, NaCl 0.15M BSA 0.1% pH 7.2. In some experiments, competing peptide or chemicals were added to the incubation mix at the indicated concentration. After incubation, microtiter plates (Costar #3693) were red using PolarScan Omega (BMG Labtech) equipped for HTRF measurements. Upon excitation at 320 nm, a 620 nm fluorescence emission is produced by the donor terbium that in turn excites a 665 nm light emission by a Streptavidin-d2 (acceptor) bound to the Biotinylated interacting Peptide if the latter is interacting with the donor. The […] R ratio is obtained and a Delta F is computed as: [(Rsample−RNSB)/RNSB]*100 where RNSB is the Non Specific Background signal determined in incubates where the GST-fusion protein was omitted.
# (§3) Having shown that HTRF measurement of interaction is a reliable technology to identify inhibitors of interaction. A screen of a chemical compound library provided by MRCt has been initiated. The screening consisted in the same HTRF technique used in Example 7 except that compounds from the library were added in the incubation mix at the final concentration of 6.6×10^−5M. […] Since such a result could be either due to a specific inhibition of the JAM-C peptide interaction to the recombinant Grasp55 PDZ domains or to a non-specific inhibition of the FRET signal between donor and acceptor in HTRF technology, the twenty selected compounds have been further tested. Indeed, compounds could potentially interfere with the binding of the anti-GST antibody terbium-labeled to the GST of the fusion protein, the binding of Streptavidin-d2 to the biotinylated peptide or promote strong interference at 320, […] or 665 nm. Thus, the putative hits obtained were screened for non-specific inhibition. To this end, the GST-PDZI′+II′ recombinant protein was biotinylated using Sulfo-NHS Biotin according to manufacturer instructions (Pierce). This allows designing an HTRF assay in which the d2-coupled streptavidin (acceptor) and the terbium-coupled anti-GST antibody are directly bound to recombinant GST-PDZI′+II′ protein and produce DeltaF signal independently of the biotinylated peptide. The twenty selected compounds were thus tested in this assay to eliminate those giving false inhibition of the HTRF signals while inhibitors of Biotinylated peptide interaction with GST-PDZI′+II′ should not interfere in this assay.
# [2] = target: T2, GST-PDZI′+II′ (Grasp55 residues 1 to 208) (Mus musculus, UniProt Q99JX3); assay: HTRF measurement of interaction of biotinylated C-terminal peptides with GST-PDZI′+II′; format: binding, murine; settings: for interaction of biotinylated peptide with PDZI′+II′ GST construct: peptide 1.9*10^−7M
# T2 construct: and 1 to 208 corresponding respectively to the PDZI′, PDZII′ and PDZI′+II′ constructs; made in house; host or cells: bacteria Rosetta
# Description: as §1, §2, §3
# [3] = target: T3, JAM-C (Mus musculus, UniProt Q9D8B7); assay: yeast two hybrid interaction of Grasp55 constructs with JAM-C; format: binding, murine; set-up: key: Symbols “+++” and “−” indicates the growth of yeast on selective media as shown in the FIGURE 13; Symbols “+++” and “−” indicates the growth of yeast on selective media as shown in the FIGURE 13
# T3 construct: amino-acids 263 to 310 of murine JAM-C; expressed in transfected cells; host or cells: AH109 yeast strain
# T3 sequence (Q9D8B7 263-310): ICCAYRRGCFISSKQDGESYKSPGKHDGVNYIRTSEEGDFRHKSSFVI
# Description: (§4) The different GRASP55 constructs were cloned into pGBT9 GW vector (Ga14 DNA-binding domain fusion vector, Trp) as well in the pACT2 GW vector (Gal4 DNA-activation domain fusion vector, Leu) using the Gateway technology (Invitrogen). Plasmids were then co-transformed in AH109 yeast strain (/MATa, trp1-901, leu2-3, 112, ura3-52, his3-200, gal4/A, /gal80/A, /LYS2::GAL1//UAS//-GAL1//TATA//-HIS3, GAL2//UAS//-GAL2//TATA//-ADE2, URA3::MEL1//UAS//-MEL1//TATA//-lacZ, MEL1/) in accordance with the previously described transformation protocol (Chien et al. 1991. Proc Natl Acad Sci USA. 88:9578-82). Following co-transformation with the two vectors containing the different constructs (as well as the empty vector to test self activation), yeasts were plated onto Synthetic Complete (SC) medium minus Leucine (−L), minus Tryptophan (−W), minus Histidine (−H) and incubated at 30° C. for 4 to 5 days. All yeast media were prepared as previously described.
# (§5) In examples 2, the inventors have previously shown that interaction between Grasp55 and C-terminal part of JAM-C requires the peptidic sequence between residues 1 to 160 of Grasp55 (PDZI+II) but cannot occur with residues 1 to 79 of Grasp55 (PDZI) by yeast two hybrid and ELISA assay (FIGS. 2 and 8). In the present example, the interaction sites between JAMs or metalloproteinases involved in JAM regulation and Grasp55 have been mapped using new constructs. To this end, yeast two-hybrid and GST fusion proteins encompassing residues 1 to 107, 108 to 208, and 1 to 208 corresponding respectively to the PDZI′, PDZII′ and PDZI′+II′ constructs have been generated. The former PDZII construct (residues 80 to 160) have also been used to test interaction with the C-terminal sequences of ADAM 10 (of sequence SEQ ID NO: 41) and ADAM 17 (of sequence SEQ ID NO: 42) known to regulate JAM-A and JAM-C release (Table 1). GST fusion proteins were produced and yeast two-hybrid assay was performed as previously described in example 1.
# [4] = target: T4, JAM-C ΔPDZbm (Mus musculus, UniProt Q9D8B7); assay: yeast two hybrid interaction of Grasp55 constructs with JAM-C ΔPDZbm; format: binding, murine; set-up: key: Symbols “+++” and “−” indicates the growth of yeast on selective media as shown in the FIGURE 13; Symbols “+++” and “−” indicates the growth of yeast on selective media as shown in the FIGURE 13
# T4 construct: amino-acids 263 to 310 of murine JAM-C; expressed in transfected cells; host or cells: AH109 yeast strain
# T4 sequence (Q9D8B7 263-307 limits assumed): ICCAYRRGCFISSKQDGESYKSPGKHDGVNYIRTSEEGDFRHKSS
# Description: as §4, §5
# [5] = target: T5, ADAM10 (Mus musculus, UniProt O35598, DEL741-741); assay: yeast two hybrid interaction of Grasp55 constructs with ADAM10 C-terminal sequence; format: binding, murine; set-up: key: Symbols “+++” and “−” indicates the growth of yeast on selective media as shown in the FIGURE 13; Symbols “+++” and “−” indicates the growth of yeast on selective media as shown in the FIGURE 13
# T5 construct: expressed in transfected cells; host or cells: AH109 yeast strain
# T5 sequence (O35598 with tags, fused parts or gaps DEL741-741): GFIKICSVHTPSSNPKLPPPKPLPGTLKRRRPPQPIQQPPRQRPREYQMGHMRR
# Description: as §4, §5
# [6] = target: T6, ADAM17 (Mus musculus, UniProt Q9Z0F8, A775V/P752S); assay: yeast two hybrid interaction of Grasp55 constructs with ADAM17 C-terminal sequence; format: binding, murine; set-up: key: Symbols “+++” and “−” indicates the growth of yeast on selective media as shown in the FIGURE 13; Symbols “+++” and “−” indicates the growth of yeast on selective media as shown in the FIGURE 13
# T6 construct: expressed in transfected cells; host or cells: AH109 yeast strain
# T6 sequence (Q9Z0F8 693-827 P752S/A775V): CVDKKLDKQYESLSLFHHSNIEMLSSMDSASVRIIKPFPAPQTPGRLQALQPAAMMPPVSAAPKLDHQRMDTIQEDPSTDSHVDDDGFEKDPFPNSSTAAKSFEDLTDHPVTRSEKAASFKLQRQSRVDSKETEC
# Description: as §4, §5
# [7] = system: B16F10 cells; assay: wound healing assay (cell migration); format: cell-based, mouse; settings: siRNA, 48 h post-transfection, measured over 6 h; sicontrol 167±13; Mean+/−SEM
# Description: Transient transfections were performed on a 50% confluent monolayer of B16F10 cells with either 10 nM of siRNA or 5 μg of shRNA against luciferase used as a control or shRNA against GRASP55 in Lipofectamine RNAimax (Invitrogen). Transfection efficiency was monitored at 24 h by qRT-PCR and Western blots for the expression of GRASP55 transcript or protein. For selection of stable transfectants, cells were grown in DMEM containing 10 μg/ml of puromycine (Sigma Aldrich) starting 48 h after transfection.
# For in vitro wound healing assays, 80% confluent monolayers of wild-type B16F10 cells or B16F10 cells transfected with various siRNA or shRNA were grown in both chambers of Ibidi culture inserts with defined cell free gaps. Cells were subjected to serum starvation for 24 h, before wounds were created by removing Ibidi culture inserts that define cell gaps of 400 μm. The wound healing was carried out for 8 h in complete DMEM medium and was recorded at various times after wounding. Analysis of wound closure was performed using Metamorph software and is expressed as mean speed per minute.
# [8] = competition with unlabelled JAM-C peptide
compound,measurement,setting,value
JAM-C: biotinylated C-terminal peptide of JAM-C (NYIRTSEEGDFRHKSSFVI; also: biotin),interaction of biotinylated peptide with PDZI′ GST construct,[1],confirmed
same,AppAff for GST-PDZI′+II′ compared with GST-PDZI′,[2]; [8],higher AppAff
same,interaction of biotinylated peptide with PDZI′+II′ GST construct,[2],confirmed
"PDZI′: Grasp55 construct, residues 1 to 107",interaction with JAM-C (yeast growth on selective media),[3],+++
same,interaction with JAM-C ΔPDZbm (yeast growth on selective media),[4],−
same,interaction with ADAM10 (yeast growth on selective media),[5],−
same,interaction with ADAM17 (yeast growth on selective media),[6],−
ΔPDZbm: control biotynilated JAM-C peptide lacking the three terminal amino-acids (SEQ ID NO: 31) (NYIRTSEEGDFRHKSS; also: biotinylated),interaction of biotinylated peptide with PDZI′+II′ GST construct,[2],no signal over the background
"PDZII′: Grasp55 construct, residues 108 to 208",interaction with JAM-C (yeast growth on selective media),[3],−
same,interaction with JAM-C ΔPDZbm (yeast growth on selective media),[4],−
same,interaction with ADAM10 (yeast growth on selective media),[5],−
same,interaction with ADAM17 (yeast growth on selective media),[6],−
"siGRASP55#01: siRNA targeting Grasp55, SEQ ID NO: 6, 5′CGUCAUGAAUGAGUCUGAATT 3′, from Ambion (chemistry not given here)",mean velocity,[7],82 ± 4 nm/min
JAM-A: biotinylated C-terminal peptide of JAM-A (SQPSTRSEGEFKQTSSFLV; also: biotinylated),interaction of biotinylated peptide with PDZI′ GST construct,[1],confirmed
same,AppAff for GST-PDZI′+II′ compared with GST-PDZI′,[2]; [8],higher AppAff
same,apparent affinity (AppAff) compared with JAM-C,"[2]; competition with unlabelled JAM-C peptide, GST-PDZI′ and GST-PDZI′+II′",AppAff of JAM-C is equal to AppAff of JAM-A
same,interaction of biotinylated peptide with PDZI′+II′ GST construct,[2],confirmed
"siGRASP55#1: siRNA targeting Grasp55, SEQ ID NO: 7, 5′AAGUGAUCAUCACACCAAATT 3′, from Ambion (chemistry not given here)",mean velocity,[7],95 ± 8 nm/min
"N.N.O=C([O-])C1(C(=O)[O-])CCC1.[Pt+2] [Carboplatin, cis-Diammine(1,1-cyclobutanedicarboxylato)platinum(II)]",which Grasp55 construct's interaction with JAM-C is inhibited,[1],preferentially inhibit the interaction of JAM-C with PDZI′
"O=c1oc2c(O)c(O)cc3c(=O)oc4c(O)c(O)cc1c4c23 [Ellagic acid, 2,3,7,8-Tetrahydroxy-chromeno[5,4,3-cde]chromene-5,10-dione]",which Grasp55 construct's interaction with JAM-C is inhibited,[1],inhibit interaction with PDZI′ and PDZI′+II′
"PDZI′ + II′: Grasp55 construct, residues 1 to 208",interaction with JAM-C (yeast growth on selective media),[3],+++
same,interaction with JAM-C ΔPDZbm (yeast growth on selective media),[4],−
same,interaction with ADAM10 (yeast growth on selective media),[5],−
same,interaction with ADAM17 (yeast growth on selective media),[6],−
"CCN(CC)C(=S)SSC(=S)N(CC)CC [Disulfiram, 1,1′,1″,1′″-[disulfanediylbis(carbonothioylnitrilo)]tetraethane]",which Grasp55 construct's interaction with JAM-C is inhibited,[1],only with PDZI′+II′
